Laboratory results reported in the supplement of paper PMC9170038.

system: MS2 coat protein; assay: apparent KD of MS2 coat protein; higher = weaker reporter binding; settings: Eterna round: R107; input ligand: theophylline 20 uM
Procedure, shortened: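 Normalised binding curves from single clusters were fitted, and the median fit for each design is given as apparent KD. The clusters held designed RNA switches transcribed on-chip from Illumina sequencing clusters. These were titrated with SNAP-549-labelled MS2 coat protein (twofold steps from 0.7 or 1.5 nM to 3 µM, 0.8–1.5 h to 10–20 min per step) in 100 mM Tris-HCl pH 7.5, 80 mM KCl, 4 mM MgCl2, without or with constant ligand.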

Sequence	apparent KD of MS2 coat protein
ACGUUUUAGUCGGCCGCCACUGUUUUCAUGUUCAACAUGAGGAUCACCCAUGUACCUUUUUUUAUCAGGACCGGGACGUAAUAGA [JR_SSTryptoB_Sub004]	102 nM
UCGCCCAGAAAGGAUUCCUGGGAUAUGGAAGGAGCGCUGAUGCCAGCAGGUAGGUCGCCAACGGACAUGAGGAUCACCCAUGUAC [Same State - Arginine A (Freestyle 7)]	25.7 nM
GAGCUGAUGUAGAAAUUUUAUUUAUGAGAUACCAGUACAGAAAUGUACCCUUGGCAGCUCAUUUUUACAUGAGGAUCACCCAUGU [Ex Theophylline A 14]	12.8 nM
AUGUAGAACCGAAGGAGCGCGAUAACAUGAGGAUCACCCAUGUAGUUUUGGUGGCUUCGAUCGCAGGUAGGUCGCGGAAGUAGUA [#03 Exclusion - Arginine B]	97.6 nM
ACAUGAGGAUCACCCAUGUGGCGUCUUGAUACCAGACGAGAAGUAGUCCCUUGGCAGCAAAUACGUGAGGAUCACACAUGUGCGA [cccmullin3]	30.9 nM
ACAUGAGGAUCACCCAUGUGCAGCACGGAUACCAGCGUCCUAGUGCGCCCUUGGCAGCCGGACAUGAGGAUCACCCAUGUGUGGG [Exclusion Theophylline A GF30]	135 nM
ACAUUGCGCUCGGCCGCCACUGGCUUAUGAUUAUAAGCAUUAAUGAACAUGAGGAUCACCCAUGUCAGGACCGGGAGCGAACCAU [SSTryp B #7]	17.7 nM
AAUGCCGGAUCGGCCGCCACUGGUUGGCUCUGUGUACAUGAGGAUCACCCAUGUCCAUCCCAAACCAGGACCGGGAUCUUUGUGU [Veonmale]	17.4 nM
UCUUGGUCCGCAAGGACCUUGAGUUGCGAUACCAGCACGGUAACGUGCCCUUGGCAGCGCACAUGAGGAUCACCCAUGUGGUGUU [#1 Exclusion - Theophylline A Attempt #16 (HarryS)]	348 nM
ACAUGAGGAUCACCCAUGUAAUCAUCAGAAGGAGCGUGGAAUAACACAGGUAGGUCGCUGAUGUUAUAUUAAUCUUAUUCGUAAA [JR_ExcArginiA_Sub003]	18.7 nM
GAGUAGAGGACGGCCGCCACUGAACAUGAGGAUCACCCAUGUCGUGAUCCGUUACCUAAAGAAGAUAGGACCGGGUCAUGUACUC [Exclusion Tryptophan B GF 19]	41.7 nM
GCUAGUGGCAGAAGGAGCGACAUUUAUAGUGGUCGAUACAUGAGGAUCACCCAUGUACUAUGUCAGGUAGGUCGCUGCCACUAGC [EAB NP+V+V2 #5]	44.8 nM
AGCGACAUGCGUGAUACCAGCUACAUGAGGAUCACCCAUGUACGUCAGUAAUGACUGUGUAGCCCUUGGCAGCAUAAUGCAUGUC [Exclusion - Theophylline B (Freestyle 18)]	55.8 nM
GGUACAUGAGGAUCACCCAUGUAUUAGUGCCGAGGACCGGUACGGCCGCCACUCGCUUCACAUGAGGAUCACCCAUGUGUCACAG [SSTA DOUBLE!!! :-D #13]	38.4 nM
UCGCCCAGGAUGGAAUCCUGGGAUAUGGAAGGAGCGCUGAUGCCAGCAGGUAGGUCGCCAACGGACAUGAGGAUCACCCAUGUAC [Same State - Arginine A (Freestyle 9)]	28.8 nM
ACAUGAGGAUCACCCAUGUAGUGGCACGAUACCAGCUGAUCCCGUGGCCCUUGGCAGCGUCCGGUGUGGUGCGCCGGGUUGGAGC [BBBMULLIN]	77.4 nM
UGUCGGCGAAAGUUGGCGUGUCUUGCUGGUCGAGGACCGGUACGGCCGCCACUCGAUCCUUCGCACAUGAGGAUCACCCAUGUUG [SS Tryp A #24]	49.1 nM
AAUAAACAUGAGGAUCACCCAUGUAGGGUGCGAGGACCGGUACGGCCGCCACUCGGGUGAAAACAUGAGGAUCACCCAUGUUAAA [Cloverleaf #DoubleMS2 #GUTurnoff]	176 nM
UAACAUGAGGAUCACCCAUGUAAACUAAGUCGAGGACCGGUACGGCCGCCACUCGAAAUUGAAGAAUUGGCGGAAAAUGUAUGUU [JR_ExcTryptoA_Sub018]	17.7 nM

same assay, conditions: Eterna round: R107; input ligand: theophylline 2 mM

Sequence	apparent KD of MS2 coat protein
GGCAAAAGGUCGGCCGCCACUGUAGGAUGUGUUCUUUCACAUGAGGAUCACCCAUGUUGUUAUUAUAGGACCGGGAUUUUAGGAC [39MS split4]	23.4 nM
AAUAAUAAGGCGGCCGCCACUACACAUGAGGAUCACCCAUGUCUCGCGGGCUUGCGUUGGGAUUGUAGGACCGGGCCAAUAAUAA [Exclusion - Tryptophan B (Freestyle 11)]	30.4 nM
ACAUGAGGAUCACCCAUGUUUGAUGUUCCUCGAGGACCGGUACGGCCGCCACUCGAACGAGUGGCGCGCGAGCGCGCGCUCGCGC [aRa]	14.8 nM
AAUGUAAUAGUCGUACUCUUACACUGAGAAGGAGCGCGAAAGUUCGCAGGUAGGUCGCUCAGUUAUACAUGAGGAUCACCCAUGU [Bebemaata]	27.9 nM
CGAUAGAUACGAAGGAGCGACAUGAGGAUCACCCAUGUCUACCACGUCGAAAGACGCUCAUGUCAGGUAGGUCGCGUAUUUAUCG [Astros-Eli-mod8]	156 nM
AACAUGAGGAUCACCCAUGUACCUUUCGAUCGAGGACCGGUACGGCCGCCACUCGAAAACAUGAGGAUCACCCAUGUUCAACAGG [Tryp A SS t3]	154 nM
UUCACAUGGUAUGAAUAUACAUAUAAGAAACGAGGACCGGUACGGCCGCCACUCGUGCCGGAAACAUGAGGAUCACCCAUGUGUU [AK1.1 Exclusion TrypA mod IceBolt]	64.8 nM
ACACCAUACAUGAGGAUCACCCAUGUUACACGAGGACCGGUACGGCCGCCACUCGAAUUCAGGAAACCUCGGAUAAUAUUGUGAA [JR_SS-TryptA_Sub001]	32.4 nM
UGUAUGGACUGAAGGAGCGGGUUGAUAACCUGAGGAUCAUCCAGGUAAAAGGCGAAAGCCGCCCAGGUAGGUCGCAGUCCAUACU	280 nM
UUAUAAGUACCGGUCCUCAGAUCCUCAUGACGAGGACCGGUACGGCCGCCACUCGAAACAUGAGGAUCACCCAUGUAAUAAUACC [Brourdmod12]	54.2 nM
UUUUUUAUUGGGUAUAGAAUAUUAACUGAAGGAGCGUGGUAUUACACAGGUAGGUCGCAGUUUUUACAUGAGGAUCACCCAUGUU [JR_SSArginiA_Sub010]	60.1 nM
GUUGAGACCUCGGCCGCCACUCGCCAUGAGGAUCUCCCAUGUAACAUGAGGAUCACCCAUGUACUGAGGACCGGGAGGUCCUAGU [Same State Tryptophan B GF 15]	33.5 nM
GGGAGGUAGGCGGCCGCCACUGAUUUUCAUAUAUAUAUAACAUGAGGAUCACCCAUGUAGAUAUACAGGACCGGGCCUAUUUUUU [aaaF]	18.2 nM
GUAUAAAGAAAACUUUAUACAGUGGGUGAACGAGGACCGGUACGGCCGCCACUCGGACAUGAGGAUCACCCAUGUCCAUGUGAAA [AstrosExyTryA#9]	17 nM
ACAUGAGGAUCACCCAUGUAACAAACAGAAGGAGCGUGAAAGAACACAGGUAGGUCGCUGAACUUAAUGAAUACUCAUUAGAUCC [JR_Nu_SSArginiA_Sub027]	15.8 nM
